From patent publication US20200317768A1 (published 2020)

Key:
[1] = target: T1, human FcγRIIaH extracellular domain, C-terminal His-tag (human, UniProt P12318 34-217); assay: SPR (BIACORE), antibody captured, soluble FcgR as analyte, 25C
T1 construct: also called human FcγRIIa (type H); FcgRIIaH; not shown: His-tag added to the C-terminus
T1 sequence: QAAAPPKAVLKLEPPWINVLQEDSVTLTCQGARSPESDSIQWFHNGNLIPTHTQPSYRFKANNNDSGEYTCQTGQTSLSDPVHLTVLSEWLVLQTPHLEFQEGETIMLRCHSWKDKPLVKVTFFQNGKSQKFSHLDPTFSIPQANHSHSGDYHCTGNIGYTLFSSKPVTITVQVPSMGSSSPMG
Protocol: (§1) The kinetic analysis of interactions between these antibodies and FcγR was carried out using BIACORE® T200 or BIACORE® 4000 (GE Healthcare). HBS-EP+ (GE Healthcare) was used as the running buffer, and the measurement temperature was set to 25° C. A chip produced by immobilizing Protein A. Protein A/G or mouse anti-human IgG kappa light chain (BD Biosciences) onto a Series S Sensor Chip CM4 or CM5 (GE Healthcare) by the amine-coupling method was used. […] After the measurement, the antibody captured on the chip was washed off by allowing reaction with 10 mM glycine-HCl, pH1.5 and 25 mM NaOH so that the chip was regenerated and used repeatedly. The sensorgrams obtained as measurement results were analyzed by the 1:1 Langmuir binding model using the BIACORE® Evaluation Software to calculate the binding rate constant ka (L/mol/s) and dissociation rate constant kd (l/s), and the dissociation constant KD (mol/L) was calculated from these values. […] Regarding such interactions, KD values were calculated using the following 1:1 binding model described in BIACORE® T100 Software Handbook BR1006-48 Edition AE.
(§2) Human FcγRIIb-enhanced Fc variants with anti-myostatin variable region were constructed and their affinity for human FcγRs was evaluated. […] In addition, substitutions (Q311R/D413K or […]) were also introduced. The variants were expressed using M103202L1045-SK1 as light chain and their affinity to human FcγRs was analyzed according to the method shown in Example 34.

[2] = target: T2, human FcγRIIIaV extracellular domain, C-terminal His-tag (human, UniProt P08637 17-208); assay: as above
T2 construct: also called FcgRIIIaV; not shown: His-tag added to the C-terminus
Protocol: as §1, §2

[3] = target: T3, human FcγRIIaR extracellular domain, C-terminal His-tag (human, UniProt P12318 34-217); assay: as above
T3 construct: also called human FcγRIIa (type R); FcgRIIaR; not shown: His-tag added to the C-terminus
T3 chain: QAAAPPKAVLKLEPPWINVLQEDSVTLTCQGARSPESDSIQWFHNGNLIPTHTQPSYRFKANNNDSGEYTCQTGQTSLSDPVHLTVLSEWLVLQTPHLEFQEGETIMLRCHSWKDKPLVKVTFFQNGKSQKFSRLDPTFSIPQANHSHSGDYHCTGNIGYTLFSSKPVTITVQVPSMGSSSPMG
Protocol: as §1, §2

[4] = target: T4, human FcγRIIb extracellular domain, C-terminal His-tag (human, UniProt P31994 43-217); assay: as above
T4 construct: also called FcgRIIb; not shown: His-tag added to the C-terminus
T4 sequence: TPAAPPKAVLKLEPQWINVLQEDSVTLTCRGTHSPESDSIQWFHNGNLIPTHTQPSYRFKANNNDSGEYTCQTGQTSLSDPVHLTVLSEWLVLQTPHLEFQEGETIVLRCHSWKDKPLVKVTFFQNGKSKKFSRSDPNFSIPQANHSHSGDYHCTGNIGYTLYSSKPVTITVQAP
Protocol: as §1, §2

[5] = target: T1, human FcγRIIaH extracellular domain, …; assay: SPR; KD of SG1 divided by KD of variant;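 note: relative to parent M103205H795-SG1 carrying the SG1 human heavy chain constant region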
Protocol: as §1, §2

[6] = target: T2, human FcγRIIIaV extracellular domain, …; assay: SPR; KD of SG1 divided by KD of variant;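 note: relative to parent M103205H795-SG1 carrying the SG1 human heavy chain constant region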
Protocol: as §1, §2

[7] = target: T3, human FcγRIIaR extracellular domain, …; assay: SPR; KD of SG1 divided by KD of variant;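 note: relative to parent M103205H795-SG1 carrying the SG1 human heavy chain constant region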
Protocol: as §1, §2

[8] = target: T4, human FcγRIIb extracellular domain, …; assay: SPR; KD of SG1 divided by KD of variant;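 note: relative to parent M103205H795-SG1 carrying the SG1 human heavy chain constant region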
Protocol: as §1, §2

T2 sequence (P08637 17-208 F176V): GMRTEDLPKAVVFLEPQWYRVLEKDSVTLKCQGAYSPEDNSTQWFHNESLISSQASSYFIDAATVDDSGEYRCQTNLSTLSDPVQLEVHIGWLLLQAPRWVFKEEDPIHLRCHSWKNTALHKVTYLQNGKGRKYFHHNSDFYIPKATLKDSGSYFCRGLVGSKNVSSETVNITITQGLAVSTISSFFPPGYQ

B1: MS1032LO19-SG1 (MS103240H795-SG1/M103202L1045-SK1) (antibody, human IgG1, kappa)
heavy: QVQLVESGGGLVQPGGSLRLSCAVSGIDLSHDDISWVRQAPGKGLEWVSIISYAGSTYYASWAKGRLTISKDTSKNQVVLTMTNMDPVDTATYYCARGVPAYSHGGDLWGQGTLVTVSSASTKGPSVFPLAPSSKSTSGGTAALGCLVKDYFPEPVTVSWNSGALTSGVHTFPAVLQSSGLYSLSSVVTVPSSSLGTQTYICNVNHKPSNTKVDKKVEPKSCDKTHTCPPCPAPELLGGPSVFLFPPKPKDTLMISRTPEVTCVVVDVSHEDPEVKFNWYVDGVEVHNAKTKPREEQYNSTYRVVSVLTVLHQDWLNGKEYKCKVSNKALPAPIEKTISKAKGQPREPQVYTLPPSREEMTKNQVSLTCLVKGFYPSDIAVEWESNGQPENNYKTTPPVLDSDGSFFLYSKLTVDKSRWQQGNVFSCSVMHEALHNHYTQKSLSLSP
light: DIVMTQSPATLSLSPGERATLSCTTSQSVYHENWLSWFQQKPGQPPKLLIYWASTLAYGVPSRFSGSGSGTDFTLTISSLQPEDAATYYCAGGYGGGRYAFGQGTKVEIKRTVAAPSVFIFPPSDEQLKSGTASVVCLLNNFYPREAKVQWKVDNALQSGNSQESVTEQDSKDSTYSLSSTLTLSKADYEKHKVYACEVTHQGLSSPVTKSFNRGEC
Work on B1 yielded a Kd [1] of 0.75 µM, a Kd [2] of 0.81 µM and a Kd [3] of 1.1 µM. The Kd [4] was 0.58 µM, the “KD fold (SG1 = 1)” value [5] was 1 fold and the “KD fold (SG1 = 1)” value [6] was 1 fold. The “KD fold (SG1 = 1)” value [7] was 1 fold and the “KD fold (SG1 = 1)” value [8] was 1 fold.

B2: MS103240H795-TT10/M103202L1045-SK1 (antibody, human IgG1, kappa)
heavy: QVQLVESGGGLVQPGGSLRLSCAVSGIDLSHDDISWVRQAPGKGLEWVSIISYAGSTYYASWAKGRLTISKDTSKNQVVLTMTNMDPVDTATYYCARGVPAYSHGGDLWGQGTLVTVSSASTKGPSVFPLAPSSKSTSGGTAALGCLVKDYFPEPVTVSWNSGALTSGVHTFPAVLQSSGLYSLSSVVTVPSSSLGTQTYICNVNHKPSNTKVDKKVEPKSCDKTHTCPPCPAPELLGGDSVFLFPPKPKDVLMISRTPEVTCVVVDVAHEDPEVKFNWYVDGVEVHNAKTKPREEQYNSTYRVVSVLPVLHQDWLNGKEYKCKVSNKALPKPIEKTISKAKGQPREPQVYTLPPSREEMTKNQVSLTCLVKGFYPSDIAVEWESNGQPENNYKTTPPVLDSDGSFFLYSKLTVDKSRWQQGNVFSCSVMHEALHNHYTQKSLSLSP
light: DIVMTQSPATLSLSPGERATLSCTTSQSVYHENWLSWFQQKPGQPPKLLIYWASTLAYGVPSRFSGSGSGTDFTLTISSLQPEDAATYYCAGGYGGGRYAFGQGTKVEIKRTVAAPSVFIFPPSDEQLKSGTASVVCLLNNFYPREAKVQWKVDNALQSGNSQESVTEQDSKDSTYSLSSTLTLSKADYEKHKVYACEVTHQGLSSPVTKSFNRGEC
notes: CH = SG1 with P238D/T250V/S267A/T307P/A330K (EU numbering)
B2 gave a Kd [1] of 56 µM, a Kd [2] of 790 µM and a Kd [3] of 8.7 µM. The Kd [4] was 0.63 µM, the “KD fold (SG1 = 1)” value [5] was 0.013 fold and the “KD fold (SG1 = 1)” value [6] was 0.001 fold. For the same binder, the “KD fold (SG1 = 1)” value [7] was 0.13 fold and the “KD fold (SG1 = 1)” value [8] was 9.2 fold.

B3: MS103240H795-MY214/M103202L1045-SK1 (antibody, human IgG1, kappa)
heavy: QVQLVESGGGLVQPGGSLRLSCAVSGIDLSHDDISWVRQAPGKGLEWVSIISYAGSTYYASWAKGRLTISKDTSKNQVVLTMTNMDPVDTATYYCARGVPAYSHGGDLWGQGTLVTVSSASTKGPSVFPLAPSSKSTSGGTAALGCLVKDYFPEPVTVSWNSGALTSGVHTFPAVLQSSGLYSLSSVVTVPSSSLGTQTYICNVNHKPSNTKVDKKVEPKSCDKTHTCPPCPAPELLGGDSVFLFPPKPKDVLMISRTPEVTCVVVDVSHEDPEVKFNWYVDGVEVHNAKTKPREEQYNSTYRVVSVLPVLHQDWLNGKEYKCKVSNKALPAPIEKTISKAKGQPREPQVYTLPPSREEMTKNQVSLTCLVKGFYPSDIAVEWESNGQPENNYKTTPPVLDSDGSFFLYSKLTVDKSRWQQGNVFSCSVMHEALHNHYTQKSLSLSP
light: DIVMTQSPATLSLSPGERATLSCTTSQSVYHENWLSWFQQKPGQPPKLLIYWASTLAYGVPSRFSGSGSGTDFTLTISSLQPEDAATYYCAGGYGGGRYAFGQGTKVEIKRTVAAPSVFIFPPSDEQLKSGTASVVCLLNNFYPREAKVQWKVDNALQSGNSQESVTEQDSKDSTYSLSSTLTLSKADYEKHKVYACEVTHQGLSSPVTKSFNRGEC
notes: CH = SG1 with P238D/T250V/T307P (EU numbering)
With B3 the Kd [1] was 32 µM, the Kd [2] was 150 µM and the Kd [3] was 21 µM. For the same binder, the Kd [4] was 1 µM, the “KD fold (SG1 = 1)” value [5] was 0.023 fold and the “KD fold (SG1 = 1)” value [6] was 0.005 fold. For the same binder, the “KD fold (SG1 = 1)” value [7] was 0.05 fold and the “KD fold (SG1 = 1)” value [8] was 5.8 fold.

B4: MS103240H795-TT08/M103202L1045-SK1 (antibody, human IgG1, kappa)
heavy: QVQLVESGGGLVQPGGSLRLSCAVSGIDLSHDDISWVRQAPGKGLEWVSIISYAGSTYYASWAKGRLTISKDTSKNQVVLTMTNMDPVDTATYYCARGVPAYSHGGDLWGQGTLVTVSSASTKGPSVFPLAPSSKSTSGGTAALGCLVKDYFPEPVTVSWNSGALTSGVHTFPAVLQSSGLYSLSSVVTVPSSSLGTQTYICNVNHKPSNTKVDKKVEPKSCDKTHTCPPCPAPELLGGDSVFLFPPKPKDVLMISRTPEVTCVVVDVSHEDPEVKFNWYVDGVEVHNAKTKPREEQYNSTYRVVSVLPVLHQDWLNGKEYKCKVSNKALPKPIEKTISKAKGQPREPQVYTLPPSREEMTKNQVSLTCLVKGFYPSDIAVEWESNGQPENNYKTTPPVLDSDGSFFLYSKLTVDKSRWQQGNVFSCSVMHEALHNHYTQKSLSLSP
light: DIVMTQSPATLSLSPGERATLSCTTSQSVYHENWLSWFQQKPGQPPKLLIYWASTLAYGVPSRFSGSGSGTDFTLTISSLQPEDAATYYCAGGYGGGRYAFGQGTKVEIKRTVAAPSVFIFPPSDEQLKSGTASVVCLLNNFYPREAKVQWKVDNALQSGNSQESVTEQDSKDSTYSLSSTLTLSKADYEKHKVYACEVTHQGLSSPVTKSFNRGEC
notes: CH = SG1 with P238D/T250V/T307P/A330K (EU numbering)
B4 gave a Kd [1] of 55 µM, a Kd [2] of 96 µM and a Kd [3] of 16 µM. The Kd [4] was 0.68 µM, the “KD fold (SG1 = 1)” value [5] was 0.014 fold and the “KD fold (SG1 = 1)” value [6] was 0.008 fold. The “KD fold (SG1 = 1)” value [7] was 0.07 fold and the “KD fold (SG1 = 1)” value [8] was 8.5 fold.

B5: MS103240H795-MY009/M103202L1045-SK1 (antibody, human IgG1, kappa)
heavy: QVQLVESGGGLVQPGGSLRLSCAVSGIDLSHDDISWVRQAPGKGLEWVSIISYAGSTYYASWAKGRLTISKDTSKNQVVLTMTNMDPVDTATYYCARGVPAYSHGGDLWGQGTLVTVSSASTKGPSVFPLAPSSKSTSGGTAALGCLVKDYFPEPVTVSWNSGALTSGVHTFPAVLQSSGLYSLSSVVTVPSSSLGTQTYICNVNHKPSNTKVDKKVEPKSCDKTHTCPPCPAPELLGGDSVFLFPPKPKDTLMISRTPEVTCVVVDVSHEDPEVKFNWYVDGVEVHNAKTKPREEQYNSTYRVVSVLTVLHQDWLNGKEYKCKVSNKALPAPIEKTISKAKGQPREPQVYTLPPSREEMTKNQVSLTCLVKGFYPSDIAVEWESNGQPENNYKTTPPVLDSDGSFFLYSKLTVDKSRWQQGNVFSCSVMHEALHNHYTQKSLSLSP
light: DIVMTQSPATLSLSPGERATLSCTTSQSVYHENWLSWFQQKPGQPPKLLIYWASTLAYGVPSRFSGSGSGTDFTLTISSLQPEDAATYYCAGGYGGGRYAFGQGTKVEIKRTVAAPSVFIFPPSDEQLKSGTASVVCLLNNFYPREAKVQWKVDNALQSGNSQESVTEQDSKDSTYSLSSTLTLSKADYEKHKVYACEVTHQGLSSPVTKSFNRGEC
notes: CH = SG1 with P238D (EU numbering)
B5 showed a Kd [1] of 73 µM, a Kd [2] of 220 µM and a Kd [3] of 23 µM. For the same binder, the Kd [4] was 1.3 µM, the “KD fold (SG1 = 1)” value [5] was 0.01 fold and the “KD fold (SG1 = 1)” value [6] was 0.004 fold. The “KD fold (SG1 = 1)” value [7] was 0.05 fold and the “KD fold (SG1 = 1)” value [8] was 4.5 fold.

B6: MS103240H795-TT09/M103202L1045-SK1 (antibody, human IgG1, kappa)
heavy: QVQLVESGGGLVQPGGSLRLSCAVSGIDLSHDDISWVRQAPGKGLEWVSIISYAGSTYYASWAKGRLTISKDTSKNQVVLTMTNMDPVDTATYYCARGVPAYSHGGDLWGQGTLVTVSSASTKGPSVFPLAPSSKSTSGGTAALGCLVKDYFPEPVTVSWNSGALTSGVHTFPAVLQSSGLYSLSSVVTVPSSSLGTQTYICNVNHKPSNTKVDKKVEPKSCDKTHTCPPCPAPELLGGDSVFLFPPKPKDVLMISRTPEVTCVVIDVSHEDPEVKFNWYVDGVEVHNAKTKPREEQYNSTYRVVSVLPVLHQDWLNGKEYKCKVSNKALPKPIEKTISKAKGQPREPQVYTLPPSREEMTKNQVSLTCLVKGFYPSDIAVEWESNGQPENNYKTTPPVLDSDGSFFLYSKLTVDKSRWQQGNVFSCSVMHEALHNHYTQKSLSLSP
light: DIVMTQSPATLSLSPGERATLSCTTSQSVYHENWLSWFQQKPGQPPKLLIYWASTLAYGVPSRFSGSGSGTDFTLTISSLQPEDAATYYCAGGYGGGRYAFGQGTKVEIKRTVAAPSVFIFPPSDEQLKSGTASVVCLLNNFYPREAKVQWKVDNALQSGNSQESVTEQDSKDSTYSLSSTLTLSKADYEKHKVYACEVTHQGLSSPVTKSFNRGEC
notes: CH = SG1 with P238D/T250V/V264I/T307P/A330K (EU numbering)
With B6 the Kd [1] was 44 µM, the Kd [2] was 170 µM and the Kd [3] was 14 µM. The Kd [4] was 0.29 µM, the “KD fold (SG1 = 1)” value [5] was 0.017 fold and the “KD fold (SG1 = 1)” value [6] was 0.005 fold. For the same binder, the “KD fold (SG1 = 1)” value [7] was 0.08 fold and the “KD fold (SG1 = 1)” value [8] was 20 fold.
